We go through three molecules from patent publication US7718413B2, “Glycosylation variants of BACE” (Elan Pharmaceuticals, Inc., priority 2003, dated 2010).

Numbering of substitutions follows the chain as printed. In names and notes the source's numbering stands. Several values for one entry are separate records, joined by “and”; a condition that tells them apart may be missing. Identical values can stand only once.

Sequences and labels used below:
B1: wild type: fully glycosylated soluble BACE truncated after residue 451 with Flag sequence (protein)
chain: TQHGIRLPLRSGLGGAPLGLRLPRETDEEPEEPGRRGSFVEMVDNLRGKSGQGYYVEMTVGSPPQTLNILVDTGSSNFAVGAAPHPFLHRYYQRQLSSTYRDLRKGVYVPYTQGKWEGELGTDLVSIPHGPNVTVRANIAAITESDKFFINGSNWEGILGLAYAEIARPDDSLEPFFDSLVKQTHVPNLFSLQLCGAGFPLNQSEVLASVGGSMIIGGIDHSLYTGSLWYTPIRREWYYEVIIVRVEINGQDLKMDCKEYNYDKSIVDSGTTNLRLPKKVFEAAVKSIKAASSTEKFPDGFWLGEQLVCWQAGTTPWNIFPVISLYLMGEVTNQSFRITILPQQYLRPVEDVATSQDDCYKFAISQSSTGTVMGAVIMEGFYVVFDRARKRIGFAVSACHVHDEFRTAAVEGPFVTLDMEDCGYNIPQTD
modifications: left off: small tags and cut ends
B2: delta 2, 3: BACE variant S174I and N223A (SEQ ID NO:3), made on the 452Flag soluble truncated BACE template (protein)
chain: ETDEEPEEPGRRGSFVEMVDNLRGKSGQGYYVEMTVGSPPQTLNILVDTGSSNFAVGAAPHPFLHRYYQRQLSSTYRDLRKGVYVPYTQGKWEGELGTDLVSIPHGPNVTVRANIAAITESDKFFINGINWEGILGLAYAEIARPDDSLEPFFDSLVKQTHVPNLFSLQLCGAGFPLAQSEVLASVGGSMIIGGIDHSLYTGSLWYTPIRREWYYEVIIVRVEINGQDLKMDCKEYNYDKSIVDSGTTNLRLPKKVFEAAVKSIKAASSTEKFPDGFWLGEQLVCWQAGTTPWNIFPVISLYLMGEVTNQSFRITILPQQYLRPVEDVATSQDDCYKFAISQSSTGTVMGAVIMEGFYVVFDRARKRIGFAVSACHVHDEFRTAAVEGPFVTLDMEDCGYNIPQTD
modifications: Flag tag; Human BACE with serine to isoleucine (S174I) and asparagine to alanine (N223A) mutations.
B3: delta 3: BACE variant N223A (SEQ ID NO:2), made on the 452Flag soluble truncated BACE template (protein)
chain: B2 chain with I129S
modifications: Flag tag; Human BACE with asparagine to alanine (N223A) mutation.

The first data set relates to MBP-C125Swe. The data set can be described thus: β-Secretase assay: cleavage of substrate MBP-C125Swe, ELISA read-out. Conditions: group mean of 6 samples; 0.02 μL BACE, MBP-C125Swe 220 nM, one hour, 37° C., pH 4.5. The data set is classed as biochemical. The source says:
Peptide substrate MBP-C125Swe was used for all assays. MBP-C125Swe is a bacterial fusion protein containing maltose binding protein MBP fused to the C-terminal 125 amino acids of the Swedish variant (Lys670Asn, Met671Leu double mutation) of APP. Sinha et al (1999). The C-terminal 125 amino acids were cloned into the expression vector pMALc (New England Biolabs) and transfected into E. coli. The fusion proteins were induced and solubilized by sonication of the pelleted bacteria. The proteins were purified by affinity chromatography on amylose-agarose, made up to 3 M guanidine, and stored in 10 mM Tris, pH 7.5, 0.2% Triton X-100, and 0.15 M guanidine.
All digests were done with 0.02 μL BACE (Δ3, 0.69 μM; Δ2,3 0.77 μM; wild type 0.66 μM) at 37° C. in a total volume of 50 μL 0.06% Triton X-100 and 20 mM sodium acetate, pH 4.5. Samples were incubated with MBP-C125Swe substrate (10 μg/mL, 220 nM) for one hour. Digests were assayed in an ELISA assay, capturing with antibody to MBP and detecting with biotinylated Sw192, a neo-epitope specific antibody recognizing the free C-terminal leucine of the N-terminal product of β-secretase cleavage of the APPSwe sequence. See Seubert. P. et al. Nature 361:260-263 (1993), and Knops, J. et al. J. Biol. Chem. 270:2419-2422 (1995). Product was allowed to bind for 24 hours at 4° C., then quantitated with streptavidin-horse radish peroxidase. Biotinylated peptide corresponding to the N-terminal cleavage product was synthesized and used as a standard.
These values were converted from the above data by the following equation: nM product/hr (ng enzyme)×45 ng enzyme/pm enz× 1/220 nM substrate×⅓,660 sec/hr×50,000 nL/reaction.
For B1, the “Cleavage Product” value is 85 pM and 90 pM.

B2: the “Cleavage Product” value is 109 pM and 108 pM.

Take B3: the “Cleavage Product” value is 119 pM and 126 pM.

The same data set, now with this note: group mean; 0.02 μL BACE, MBP-C125Swe 220 nM, one hour, 37° C., pH 4.5.
Turning to B1, the Activity is 14,308 pM/h/ng enz and 15,177 pM/h/ng enz; the “Substrate Conversion” value was 4.05% and 4.30%.

In the case of B2, the Activity was 15,753 pM/h/ng enz and 15,662 pM/h/ng enz; the “Substrate Conversion” value is 5.19% and 5.16%.

Consider B3, for which the Activity is 19,071 pM/h/ng enz and 20,173 pM/h/ng enz; the “Substrate Conversion” value was 5.68% and 6.01%.
